The source of these data is the RNAGym collection of RNA variant scans (doi:10.7554/elife.90254).

B1: OR4K15 (parent)
chain: GUUAACGGUCAUAGGCCAUGGAAACUAGGAGCACCAUUUCGCUGCCAGUGAAGAAAUGAACAAAGAAAAUCUGGGCCAGGCAGGCAUCAAAAGAAAUAGUCUUGCGCUCAACCAGAAAGUCUGUAAUCAUUUUAAGGGUA

This data set covers variants of B1. Description: self-cleavage, relative activity (ratio to wild type); higher = more cleavage; in vitro, sequencing; the parent is a self-cleaving ribozyme.
On to A62G A117G, for which the self-cleavage came out at 1.43.

Take U2C A13G: the self-cleavage came out at 0.99.

For A54G A68G, the self-cleavage was found to be 0.91.

In the case of A4G G74C, the self-cleavage was 0.36.

Turning to C46A U120C, the self-cleavage came to 0.87.

In the case of A5G A140G, the self-cleavage is 0.77.

G106U U132A: the self-cleavage is 0.03.

Take A60G C128G: the self-cleavage stood at 0.87.

With A62U U131C, the self-cleavage was 1.2.

In the case of A51U A60G, the self-cleavage worked out at 0.92.

As to U49A U124A, the self-cleavage was found to be 0.56.

Consider A54G A60G, for which the self-cleavage was determined as 1.02.

Take A23G A33U: the self-cleavage stood at 1.9.

G74A U108A: the self-cleavage worked out at 0.03.

Turning to A82U A118G, the self-cleavage turned out to be 0.06.

For A66G A135G, the self-cleavage came to 0.47.

As to U39C A98G, the self-cleavage is 0.98.

Take A51U A118G: the self-cleavage came to 0.6.

With C17U A114G, the self-cleavage was 0.54.

C6U A54G: the self-cleavage was found to be 0.92.

With U38C A134G, the self-cleavage is 1.74.

U9C A51U: the self-cleavage amounted to 2.13.

Regarding C32U U39C, the self-cleavage is 1.47.

With G138A A140U, the self-cleavage was determined as 1.08.

In the case of G20A A110U, the self-cleavage amounted to 1.39.

Take A30G G31C: the self-cleavage worked out at 2.

A13G A86C: the self-cleavage stood at 0.5.

As for A52U U130C, the self-cleavage came to 1.8.

Regarding A22G C40U, the self-cleavage amounted to 1.85.

Regarding A33G U122C, the self-cleavage was 0.64.

Take A33C A111G: the self-cleavage amounted to 0.03.

For A24C A82G, the self-cleavage is 0.62.

For the variant A55G G99A, the self-cleavage amounted to 0.16.

Turning to A89G U102C, the self-cleavage was determined as 1.68.

Regarding A5G A117G, the self-cleavage stood at 1.51.

U38C A91G: the self-cleavage came to 1.24.

Regarding G1A A62C, the self-cleavage turned out to be 2.59.

Turning to U57C A69G, the self-cleavage came to 0.75.

A118G C121U: the self-cleavage stood at 1.94.

For the variant A92G A114U, the self-cleavage is 0.02.

Turning to C81A A114U, the self-cleavage was 0.03.

Regarding U43C C109A, the self-cleavage was 0.36.

On to A98G G104A, for which the self-cleavage amounted to 0.01.

For U2C A52U, the self-cleavage turned out to be 0.38.

On to G14U, for which the self-cleavage was found to be 1.11.

For A22G U120C, the self-cleavage was 0.98.

Consider U12A U131C, for which the self-cleavage turned out to be 2.37.

C85U A117G: the self-cleavage amounted to 1.16.

In the case of U9C U19A, the self-cleavage came to 1.65.

On to A59G A86C, for which the self-cleavage amounted to 0.64.

Take U87C C113A: the self-cleavage came to 0.01.

For the variant U43C A62G, the self-cleavage worked out at 1.29.

For the variant A63U U120C, the self-cleavage turned out to be 1.25.

Consider A98G A129G, for which the self-cleavage was determined as 0.17.

Regarding A92U A114G, the self-cleavage amounted to 0.17.

In the case of G48A U127A, the self-cleavage worked out at 2.28.

Take A30G A98G: the self-cleavage came out at 0.76.

As for G75U A90U, the self-cleavage was 0.12.

On to A66G A118G, for which the self-cleavage stood at 2.17.

For the variant A62U U139C, the self-cleavage came to 1.82.

For A62C A78U, the self-cleavage stood at 0.46.

Turning to A54G A134U, the self-cleavage was 1.32.

For A68G A129C, the self-cleavage was found to be 0.82.

As to A126G G136A, the self-cleavage stood at 1.4.

Consider A24G A86G, for which the self-cleavage was found to be 1.19.

A60U U87C: the self-cleavage was 1.43.

With A96G A111G, the self-cleavage worked out at 0.02.

Turning to U38C A90U, the self-cleavage is 2.23.

Consider U103C A114G, for which the self-cleavage was 0.51.

As for A94C U100C, the self-cleavage stood at 2.31.

For U108A U130G, the self-cleavage is 0.

Take G20A A54G: the self-cleavage turned out to be 1.28.

For the variant G83A, the self-cleavage was determined as 1.55.

For U2C G53U, the self-cleavage is 1.64.

Turning to C76U A117G, the self-cleavage came to 0.22.

Regarding U72C C109A, the self-cleavage stood at 0.07.

For A18G U39A, the self-cleavage stood at 1.96.

Take U72C A92G: the self-cleavage was 0.21.

With U57A A96C, the self-cleavage is 0.99.

In the case of U49C A54U, the self-cleavage was determined as 0.94.

With A18G A89G, the self-cleavage worked out at 2.05.

On to A27G U132C, for which the self-cleavage is 0.79.

Regarding A67G A68G, the self-cleavage amounted to 1.5.

Take G20A A90G: the self-cleavage came to 0.76.

For G21A A66G, the self-cleavage was found to be 1.12.

Consider C10U U37C, for which the self-cleavage was found to be 1.65.

Take A86G A129C: the self-cleavage stood at 1.29.

For the variant C6A U49G, the self-cleavage is 0.61.

As for U9C C45G, the self-cleavage is 0.85.

In the case of A5G A64U, the self-cleavage is 1.85.

A18G A59C: the self-cleavage was determined as 1.7.

For the variant U120G U130C, the self-cleavage is 1.46.

Consider A94U G106U, for which the self-cleavage was found to be 0.01.

Turning to A55G A78U, the self-cleavage came to 0.18.

Turning to U38C A126U, the self-cleavage came to 1.12.

As to U9C U87C, the self-cleavage is 0.96.

For A114G A116G, the self-cleavage turned out to be 0.1.

In the case of G83A A140U, the self-cleavage came out at 2.25.

As to A64U U108C, the self-cleavage was determined as 0.02.

Consider A60G A68U, for which the self-cleavage stood at 1.38.

As for A78U A95G, the self-cleavage is 0.84.

As to A59G U130C, the self-cleavage was determined as 1.52.

In the case of U2C C10U, the self-cleavage turned out to be 1.04.

With A68U A117G, the self-cleavage stood at 0.37.

On to U19C A36U, for which the self-cleavage was determined as 1.76.

In the case of C34U A95G, the self-cleavage stood at 0.45.

Consider A135G, for which the self-cleavage was 1.14.

Turning to U43A G44A, the self-cleavage is 1.06.

As for A22U A51U, the self-cleavage amounted to 1.14.

With A5G A36G, the self-cleavage came to 0.8.

On to U43C A92U, for which the self-cleavage was 1.6.

With A59G U87G, the self-cleavage was 0.3.

As for C105A, the self-cleavage was 0.03.

With A92C A111G, the self-cleavage came out at 0.03.

For A96G U131C, the self-cleavage stood at 1.73.

As to A134C, the self-cleavage is 1.35.

Regarding A62G A118G, the self-cleavage is 1.01.

Turning to G21C, the self-cleavage came to 0.85.

As to C101U U127A, the self-cleavage was 0.45.

As to A11U A24G, the self-cleavage amounted to 1.7.

In the case of A4G A47C, the self-cleavage turned out to be 0.42.

Take A96G A98U: the self-cleavage was determined as 2.3.

C17U A47U: the self-cleavage came out at 1.43.

With A51G U102C, the self-cleavage was determined as 2.58.

With A5G U100C, the self-cleavage was 1.11.

Consider U2C U26C, for which the self-cleavage turned out to be 1.2.

For the variant C77U A126G, the self-cleavage is 1.49.

With A63G A96G, the self-cleavage came out at 1.4.

Consider A24G A66U, for which the self-cleavage is 1.11.

Turning to A69G A111G, the self-cleavage was 0.03.

In the case of C34U U127C, the self-cleavage is 1.39.

Turning to A11G U43A, the self-cleavage was 1.12.

With U49G A56G, the self-cleavage was 1.64.

U38C U127A: the self-cleavage came out at 2.78.

As to A96C U130C, the self-cleavage is 0.69.

Regarding A117G, the self-cleavage was 1.4.

For the variant A92G C101U, the self-cleavage worked out at 0.12.

Consider A78G C109A, for which the self-cleavage amounted to 0.05.

Turning to C17A A56G, the self-cleavage was 2.2.

As for A125U, the self-cleavage came to 1.81.

A27G G44A: the self-cleavage worked out at 1.52.

C71G: the self-cleavage turned out to be 0.24.

Regarding A13U U49C, the self-cleavage is 1.28.

Turning to A13G A67G, the self-cleavage was 1.

With A23G A63G, the self-cleavage worked out at 1.01.

Regarding A60G A129G, the self-cleavage was found to be 0.49.

As to A18G A86C, the self-cleavage came out at 1.68.

As for U38C U108A, the self-cleavage came to 0.03.

Regarding A22G A66G, the self-cleavage worked out at 1.25.

Consider A92G U103C, for which the self-cleavage is 0.6.

With U3C A23C, the self-cleavage was 1.42.

As for U9G A68G, the self-cleavage worked out at 0.72.

U38A G74A: the self-cleavage turned out to be 0.21.

Regarding U43C A86C, the self-cleavage was determined as 1.4.

G106U A118G: the self-cleavage came out at 0.02.

With A68G A117U, the self-cleavage worked out at 0.82.

On to A60G A135G, for which the self-cleavage is 1.71.

As for U3C U43C, the self-cleavage turned out to be 0.78.

Take A66G A67U: the self-cleavage turned out to be 1.61.

Consider G83U A135G, for which the self-cleavage came to 0.56.

For A111U A126G, the self-cleavage was found to be 0.06.

As to A111G, the self-cleavage was found to be 0.02.

Regarding A111C, the self-cleavage came to 0.01.

On to U49A C107U, for which the self-cleavage amounted to 0.04.

As to A23G U70A, the self-cleavage was found to be 0.97.

For the variant A22G A114C, the self-cleavage came out at 0.03.

With A4C U43A, the self-cleavage was found to be 0.94.
